Source: PMC6255834, “Single point mutations reveal amino acid residues important for Chromobacterium violaceum transaminase activity in the production of unnatural amino acids” (Scientific Reports, 2018)

Legend:
Test in all cases: purified protein
purified protein [1] = substrate: COC(=O)CC(C)=O; details: amino acceptor, 10 mM 1-PEA as donor, pH 7, 45 °C, highest concentration tested 20 mM
purified protein [2] = substrate: C[C@H](N)c1ccccc1; details: amino donor, full reaction with 2.5 mM 2-OOA as acceptor, pH 7, 45 °C
purified protein [3] = substrate: CCCCCCC(=O)C(=O)O; details: amino acceptor, 10 mM 1-PEA as donor, pH 7, 45 °C

B1: CV_TA (Chromobacterium violaceum DSM30191 transaminase; ω-TA) (Chromobacterium violaceum ATCC 12472) (protein)
chain: MQKQRTTSQWRELDAAHHLHPFTDTASLNQAGARVMTRGEGVYLWDSEGNKIIDGMAGLWCVNVGYGRKDFAEAARRQMEELPFYNTFFKTTHPAVVELSSLLAEVTPAGFDRVFYTNSGSESVDTMIRMVRRYWDVQGKPEKKTLIGRWNGYHGSTIGGASLGGMKYMHEQGDLPIPGMAHIEQPWWYKHGKDMTPDEFGVVAARWLEEKILEIGADKVAAFVGEPIQGAGGVIVPPATYWPEIERICRKYDVLLVADEVICGFGRTGEWFGHQHFGFQPDLFTAAKGLSSGYLPIGAVFVGKRVAEGLIAGGDFNHGFTYSGHPVCAAVAHANVAALRDEGIVQRVKDDIGPYMQKRWRETFSRFEHVDDVRGVGMVQAFTLVKNKAKRELFPDFGEIGTLCRDIFFRNNLIMRACGDHIVSAPPLVMTRAEVDEMLAVAERCLEEFEQTLKARGLA
**Q.** For B1, which Km (purified protein [1]) is on record?
**A.** 18800 ± 5000 µM

**Q.** And the kcat (purified protein [1])?
**A.** 0.155 ± 0.0117 s⁻¹

**Q.** What about the kcat/Km (purified protein [1]) of the same protein?
**A.** 8.33 M⁻¹ s⁻¹

**Q.** And the Km (purified protein [2])?
**A.** 2600 ± 630 µM

**Q.** And the Km (purified protein [3])?
**A.** 400 ± 150 µM

**Q.** And the kcat (purified protein [3])?
**A.** 0.412 ± 0.0733 s⁻¹

**Q.** What about the kcat/Km (purified protein [3]) of the same protein?
**A.** 1030 M⁻¹ s⁻¹
